# Results from the supplement of paper PMC7877785.
# ± gives the uncertainty stated by the source.
# Experiment: self-splicing fitness, log relative to wild type (ln ratio); higher = more splicing; Tetrahymena group I intron in knt gene, E. coli kanamycin selection, DiMSum; sequences stand for … in CUCUCU…GGAGGGAAAAGUUAUCAGGCAUGCACCUGGUAGCUAGUCUUUAAACCAAUAGAUUGCAUCGGUUUAAAAGGCAAGACCGUCAAAUUGCGGGAAAGGGGUCAACAGCCGUUCAGUACCAAGUCUCAGGGGAAACUUUGAGAUGGCCUUGCAAAGGGUAUGGUAAUAAGCUGACGGACAUGGUCCUAACCACGCAGCCAAGUCCUAAGUCAACAGAUCUUCUGUUGAUAUGGAUGCAGUUCACAGACUAAAUGUCGGUCGGGGAAGAUGUAUUCUUCUCAUAAGAUAUAGUCGGACCUCUCCUUAAUGGGAGCUAGCGGAUGAAGUGAUGCAACACUGGAGCCGCUGGGAACUAAUUUGUAUGCGAAAGUAUAUUGAUUAGUUUUGGAGUACUCGUGGUCG
# In short: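 Colonies from six replicate transformations of E. coli BL21(DE3) were pooled and amplicon-sequenced on an Illumina HiSeq 2500. The library placed an intron with all eight P1ex-region nucleotides randomised inside the knt kanamycin-resistance gene on pET-22b(+), and cells grew overnight at 37°C or 30°C on LB agar with or without 25 μg/mL kanamycin (plus 100 μg/mL carbenicillin, 50 μM IPTG, 0.2% rhamnose). Fitness is the DiMSum error-weighted combination of wild-type-normalised replicate fold changes, kanamycin versus none.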
Sequence,self-splicing fitness (ln) (30 °C),self-splicing fitness (ln) (37 °C)
GGGGAGCAAUAUUACGUGUA,-3.7 ± 0.31,-2.23 ± 0.22
GGGGAGCAAUAUUACGUUAU,-3.58 ± 0.18,-2.14 ± 0.16
GGGUAGCAAUAUUACGAAUG,-2.18 ± 0.25,-1.32 ± 0.4
GGGUAGCAAUAUUACGACCG,-1.03 ± 0.18,-0.642 ± 0.33
GGGUAGCAAUAUUACGAGCU,-0.974 ± 0.17,-1.33 ± 0.19
GGGUAGCAAUAUUACGAGGG,-3.42 ± 0.33,-2.55 ± 0.33
GGGUAGCAAUAUUACGAUAA,-1.67 ± 0.13,0.147 ± 0.16
GGGUAGCAAUAUUACGAUCC,-2.2 ± 0.37,-1.47 ± 0.5
GGGUAGCAAUAUUACGAUGU,-0.794 ± 0.1,0.357 ± 0.15
GGGUAGCAAUAUUACGCAGU,-1.34 ± 0.16,-1.02 ± 0.11
GGGUAGCAAUAUUACGCAUU,-0.339 ± 0.094,-0.245 ± 0.1
GGGUAGCAAUAUUACGCCAC,,-1.72 ± 0.48
GGGUAGCAAUAUUACGCGAA,-0.995 ± 0.16,-0.21 ± 0.13
GGGUAGCAAUAUUACGGAGU,-2.36 ± 0.22,-1.21 ± 0.2
GGGUAGCAAUAUUACGGAUA,-1.74 ± 0.25,-1.08 ± 0.29
GGGUAGCAAUAUUACGGCAC,-0.322 ± 0.14,-0.0485 ± 0.18
GGGUAGCAAUAUUACGGCAG,-3.66 ± 0.4,-2.62 ± 0.4
GGGUAGCAAUAUUACGGGCA,-0.435 ± 0.25,-0.58 ± 0.26
GGGUAGCAAUAUUACGGUAG,,-1.91 ± 0.23
GGGUAGCAAUAUUACGGUCU,-0.845 ± 0.08,-0.011 ± 0.11
GGGUAGCAAUAUUACGUAGG,-2.74 ± 0.24,-1.5 ± 0.2
GGGUAGCAAUAUUACGUCCG,-0.212 ± 0.15,-0.15 ± 0.19
GGGUAGCAAUAUUACGUGCC,-0.954 ± 0.48,

Sequence,self-splicing fitness (ln) (30 °C),self-splicing fitness (ln) (37 °C)
GGGUAGCAAUAUUACGUGGG,-4.13 ± 0.32,-2.29 ± 0.19
GGGUAGCAAUAUUACGUGUC,-2.16 ± 0.18,-0.684 ± 0.15
GGGUAGCAAUAUUACGUUAC,,-4.17 ± 0.46
GGGUAGCAAUAUUACGUUCG,-0.742 ± 0.065,0.339 ± 0.086
GGUAAGCAAUAUUACGAACA,-0.0165 ± 0.19,-0.383 ± 0.18
GGUAAGCAAUAUUACGAACG,-0.0623 ± 0.11,-0.0489 ± 0.12
GGUAAGCAAUAUUACGAACU,-1.25 ± 0.25,-1.67 ± 0.36
GGUAAGCAAUAUUACGACGA,-0.849 ± 0.098,0.225 ± 0.098
GGUAAGCAAUAUUACGAGGA,,-1.84 ± 0.45
GGUAAGCAAUAUUACGAGUU,-1.56 ± 0.097,-0.413 ± 0.12
GGUAAGCAAUAUUACGAUAC,-0.265 ± 0.12,-0.608 ± 0.16
GGUAAGCAAUAUUACGCAGA,,-1.84 ± 0.47
GGUAAGCAAUAUUACGCAGG,-2.05 ± 0.16,-1.29 ± 0.15
GGUAAGCAAUAUUACGCGAA,-1.27 ± 0.15,-1.15 ± 0.16
GGUAAGCAAUAUUACGGACC,-0.973 ± 0.43,
GGUAAGCAAUAUUACGGAUG,-3.57 ± 0.34,-2.09 ± 0.18
GGUAAGCAAUAUUACGGCGC,0.369 ± 0.14,0.841 ± 0.18
GGUAAGCAAUAUUACGGGAA,-2.54 ± 0.39,-2.06 ± 0.32
GGUAAGCAAUAUUACGGGAC,-2.69 ± 0.29,-1.27 ± 0.2
GGUAAGCAAUAUUACGGGAG,,-2.88 ± 0.34
GGUAAGCAAUAUUACGGGCA,-0.438 ± 0.082,0.103 ± 0.1
GGUAAGCAAUAUUACGGUCG,-0.945 ± 0.066,-0.215 ± 0.1
